Tests used:
[1] = test system: αSyn; details: cited from earlier work
Description: Building on our findings that the presence of residues 8–11 in NAC peptides, corresponding to αSyn 68–71, is necessary for efficient nucleation and aggregation, we investigated whether disrupting this hydrophobic region could inhibit full‐length αSyn aggregation. Truncating these residues abolished aggregation, and peptides containing them (e.g., NAC16, NAC11) aggregated rapidly (Fig. 1). To test whether targeting this site could suppress aggregation, we selected a previously validated inhibitor peptide based on the KISVRV sequence. This segment mimics the 70–75 region of αSyn, a hydrop ...

[2] = test system: HEK293T αSyn (A53T) CFP/YFP biosensor cells; test: Cell seeding assay (CFP/YFP inclusions, FRET flow cytometry); format: cell-based; details: 1 μM total or insoluble fraction, TurboFect, 72 h; Fig. 5C,D
Description: HEK293T αSyn (A53T) CFP/YFP biosensor cells (HEK293T parental line, RRID:CVCL_0063) were kindly provided by Dr. Marc Diamond from the University of Texas Southwestern Medical Center (Dallas, TX, USA). The cells were not further authenticated but were routinely tested and confirmed to be mycoplasma‐free using PCR‐based assays. The cells were maintained in complete growth media consisting of 88% Dulbecco's modified Eagle's growth medium (Lonza, Walkersville, MD, USA, Cat. # 12‐604F), supplemented with 10% (v/v) fetal bovine serum (Thermo Fisher Scientific Inc., Cat. # A5256701), 10 mM HEPES (Serana Europe GmbH, Brandenburg, Germany; Cat # BSL‐001‐100ML), 1% (v/v) GlutaMAX™ Supplement (Thermo Fisher Scientific Inc., Cat. # 35050061), and 1% (v/v) Penicillin–Streptomycin Solution (Thermo Fisher Scientific Inc., Cat. # 15140130). Cells were maintained at 37 °C in a humidified incubator with 5% CO2/atmospheric air. […]
Cells were imaged using a high‐content imaging system (Cell Voyager 7000S; Yokogawa, Tokyo, Japan) with a 20× objective. CFP/YFP inclusions of αSyn (A53T) were detected using a 488 nm laser line (Ex = 460–490 nm, Em = 500–550 nm), while Hoechst‐33 342‐stained nuclei were detected using the 405 nm laser line (Ex = 360–400 nm, Em = 410–480 nm). […]

[3] = target: T1, monomeric αSyn (Homo sapiens, UniProt P37840, A53T); test: In vitro seeding assay with preformed fibrils (ThT, dot blot, Coomassie gel); format: biochemical
T1 construct: made in house
Description: For the in vitro seeding assay, αSyn (100 μM), NAC35 (100 μM), NAC16 (200 μM), and NAC11 (200 μM) peptides were aggregated without ThT for 72–96 h. Fibril formation was confirmed by mixing 10 μL of the aggregated sample with 15 μM ThT and measuring fluorescence using an EnSpire Multimode Plate Reader (Revvity). Aggregates were then centrifuged to separate insoluble fractions as described above.
αSyn (100 μM) was incubated with 25 μM insoluble fractions (preformed fibrils) of αSyn, NAC35, NAC16, and NAC11 in a 100–150 μL volume per well of a 96‐well ViewPlate in the presence of 50 μM ThT. The aggregation kinetics were monitored on an EnSpire Multimode Plate Reader (Revvity) at 37 °C with a constant agitation of 1000 rpm. ThT fluorescence was recorded every 5–10 min for over 60–65 h. After aggregation, the contents of each well were collected, and insoluble fractions were isolated by centrifugation. These fractions were subsequently analyzed using dot blot analysis and Coomassie gel staining.
The samples were mixed with 2× Laemmli buffer [62.5 mM Tris/HCl (pH 6.8), 25% (w/v) glycerol, 2% SDS, and 0.01% Bromophenol Blue, supplemented with 5% (v/v) 2‐mercaptoethanol] and boiled at 95 °C for 5 min. The samples were then subjected to electrophoresis using Mini‐PROTEAN TGX 4–20% Precast gels (Bio‐Rad, Hercules, CA, USA, Cat. # 4561095) in Tris/glycine/SDS running buffer (Bio‐Rad). Gels were fixed in 50% methanol (v/v) and 10% acetic acid (v/v) for 1 h, stained with Coomassie Brilliant Blue R‐250 Staining Solution (Bio‐Rad, Cat. # 1610436EDU) for 12 h at 4 °C with gentle agitation, and destained in deionized water. Gel images were acquired using a ChemiDoc MP imaging system (Bio‐Rad), and densitometry was performed using the IMAGEJ software (RRID: SCR_003070; Bethesda, MD, USA).
Five μL of the sample (2.5 μL first, allowed to dry completely, then another 2.5 μL) was spotted onto a nitrocellulose membrane (Bio‐Rad, Cat. # 1620147), pre‐divided into uniform circular grids, and allowed to dry for 10 min at room temperature. The membrane was blocked for 1 h with 5% bovine serum albumin (BSA) in 1× Tris‐buffered saline with 0.05% Tween® 20 (TBST), followed by 3× washes with TBST. The membrane was then incubated for 1 h with anti‐α‐Synuclein (D37A6) rabbit monoclonal antibody (Cell Signaling Technology, Inc., Danvers, MA, USA, Cat. # 4179, RRID: AB_1904156), which recognizes an epitope surrounding Glu105 in the C‐terminal region of αSyn, and was used at a 1 : 2000 dilution in 5% BSA/TBST. After 3× washes with TBST, the blot was incubated with Alexa Fluor™ 647 Goat anti‐Rabbit IgG (Thermo Fisher Scientific; Cat. # A‐21245) at a 1 : 5000 dilution for 1 h. The blot was imaged using the ChemiDoc MP imaging system (Bio‐Rad), and densitometry was performed using IMAGEJ.

[4] = ANS assay of NAC peptide aggregation at different pH; format: physicochemical; details: ANS fluorescence, 100 μM peptide, 40 μM ANS, 1× PBS, 1000 rpm, n = 3
Description: A 40‐μL reaction mixture was prepared on ice containing 100 μM NAC peptides and 40 μM 8‐anilino‐1‐naphthalenesulfonic acid (ANS; Sigma‐Aldrich, Cat. # A1028‐5G) in 1× PBS at pH 4.2, 7.2, or 8.0. The aggregation kinetics were monitored on an EnSpire Multimode Plate Reader (Revvity) at 37 °C with a constant agitation of 1000 rpm. ANS fluorescence readings (Ex: 390 nm, Em: 475 nm) were recorded every 5–10 min for 48–72 h. The lag time of aggregation was determined by fitting a Boltzmann sigmoidal equation, as described in the previous section.

[5] = UV-Vis spectrophotometric analysis of soluble and insoluble fractions; format: physicochemical; details: 100 μM peptide, 48 h incubation without ThT, 65 000 g 1 h, 1× PBS pH 7.2, spectra 400–600 nm; means of 3 replicates
Description: To fractionate aggregated samples (recombinant αSyn or NAC peptides), 20% of the aggregation mixture was set aside as the ‘total fraction’. The remaining sample was centrifuged at room temperature at 65 000 g for 1 h. The supernatant was collected as the ‘soluble fraction’ and transferred to a fresh tube. The pellet was resuspended in 80 μL of 1× PBS (pH 7.2) and centrifuged at 65 000 g for 1 h. After removing the supernatant, the pellet was resuspended in 8 μL of 1× PBS (pH 7.2), yielding a 10× concentrated ‘insoluble fraction’.
NAC peptides (100 μM) were incubated without ThT for 48 h to allow aggregation. The resulting mixtures were centrifuged at 65 000 g for 1 h to separate the soluble and insoluble fractions, as outlined above. Insoluble fractions were resuspended in an equal volume of 1× PBS (pH 7.2) as the soluble fractions. UV–Vis absorption spectra were recorded from 400 to 600 nm using an EnSpire Multimode Plate Reader (Revvity) with a resolution of 10 nm.

[6] = ThT aggregation kinetics and AFM/TEM imaging of NAC peptides; format: physicochemical
Description: NAC peptides stored at −80 °C were thawed on ice and centrifuged at 12 100 g for 45 s. A reaction mixture (40 μL) was prepared on ice containing 100 μM NAC peptide, either alone or in combination with inhibitor peptides at a 1 : 2 molar ratio, along with 15 μM ThT (Sigma‐Aldrich, Burlington, MA, USA; Cat. # T3516‐5G) in 1× PBS (pH 7.2). This mixture was then dispensed into a clear‐bottom, black 384‐well plate (Revvity, Waltham, MA, USA), and the plate was sealed with a TopSealA‐PLUS (Revvity) to prevent evaporation.
The aggregation kinetics was monitored on an EnSpire Multimode Plate Reader (Revvity) at 37 °C with a constant agitation of 1000 rpm. To prevent condensation in the assay plate, the upper heater temperature in the plate reader was set to 2 °C higher than the lower heater temperature. ThT (Ex: 460–490 nm, Em: 500–550 nm) fluorescence readings were recorded every 5–10 min for 48–72 h. The aggregation lag time was determined by fitting a Boltzmann sigmoidal equation to the fluorescence data in OriginPro 2024 (OriginLab Corporation, Northampton, MA, USA).
NAC peptide aggregates, collected after 48 h of the aggregation assay, were dropped onto a freshly cleaved 10 mm AFM mica disc (Ted Pella, Inc., Redding, CA, USA) and air‐dried for 10 min at room temperature. The mica discs were washed five times with deionized water and then dried for 10–15 min at room temperature. AFM imaging was performed as described, using the […] AIR probe (tip radius: 2 nm, spring constant: 0.4 N/m).
Samples were dropped on glow‐discharged carbon‐coated copper grids and negatively stained with 2% uranyl acetate. Electron microscopy was performed on a Tecnai G2 F20 microscope (FEI Technologies, Hillsboro, OR, USA) with an Eagle 4K CCD camera (FEI Technologies) or a CM100 TWIN Transmission Electron Microscope (Philips, Amsterdam, Netherlands) equipped with a side‐mounted Veleta Camera (Olympus, Tokyo, Japan) and processed in the iTEM software suite (Olympus). After bringing the images to 2048 × 2048 pixels, the pixel size at the specimen level was 1.14 nm. Approximately 20 micrographs of each specimen were recorded and evaluated.

Substance: KISVRV
- effect on preformed αSyn oligomers [1]: dissolve preformed oligomers
- effect on αSyn fibril formation [1]: inhibit αSyn fibril formation

Substance: KISVRVRRRRRR [PB]
- reduction of seed competency of αSyn fibrils, ranking [2]: most effective

Substance: NAC11: truncated NAC peptide corresponding to αSyn 68–78, the minimal toxic core (GAVVTGVTAVA)
- seeding of αSyn aggregation (effect on lag time) in words ([3]; 100 μM αSyn + 25 μM preformed fibrils, ThT): fail to seed αSyn aggregation
- αSyn dimerization (dimer-to-monomer band ratio, Coomassie gel) ([3]; insoluble fractions of seeded αSyn, n = 2): did not promote dimerization or aggregation
- Key observations: seeding of αSyn aggregation ([3]; summary table): lacks seeding ability
- lag time at acidic pH compared with neutral pH ([4]; acidic (pH 4.5 in legend, pH 4.2 in method) vs pH 7.2, 37 °C): longer lag times
- lag time at basic pH compared with neutral pH ([4]; pH 8.0 vs pH 7.2, 37 °C): longer lag times
- solubility: UV–Vis absorption of soluble and insoluble fractions [5]: clear increase in absorbance in the insoluble fraction
- aggregation (ThT kinetics) ([6]; 100 μM peptide, 15 μM ThT, 1× PBS pH 7.2, 37 °C, 1000 rpm, 48–72 h, ThT fluorescence, n = 3): readily underwent aggregation
- lag time of aggregation compared with NAC35 ([6]; ThT readings 0–10 h, Boltzmann sigmoidal fit, 100 μM peptide, PBS pH 7.2, 37 °C, n = 3): shorter lag time of aggregation than NAC35
- aggregate morphology (AFM and TEM) ([6]; after 48 h of aggregation): dense, sticky bundles lacking elongated tangles
- Key observations: fibril formation and stability ([6]; summary table): forms unstable fibrils prone to precipitation
- Key observations: nucleation ([6]; summary table): Rapid nucleation
